The record followed here is the Immune Epitope Database (IEDB).

In test [1] the target is HLA-A*02:06. Kind of test: IEDB peptide-MHC binding, purified MHC/competitive/radioactivity; filed as Kd, often an IC50 or EC50 that approximates it; ≥ and ≤ were set here for values at or beyond the usual limits of such assays. Conditions: source organism: Dengue virus 2 Jamaica/1409/1983.
Test [2] deals with HLA-A*02:17. Described as above. Conditions: source organism: Dengue virus 2 Jamaica/1409/1983.
The target of test [3] is HLA-B*40:01. Described as above.
Test [4] addresses HLA-B*44:02. The description is as above.
Test [5] deals with HLA-B*44:03. The description is as above.
For test [6], the target named is HLA-B*15:03. Described as above.
The target of test [7] is HLA-A*30:01. The description is as above. Conditions: source organism: Vaccinia virus WR.
Test [8] addresses HLA-A*32:01. The description is as above.
Test [9] addresses HLA-B*08:01. The description is as above.
The target of test [10] is HLA-B*15:01. The test is described as above. The note with it: source organism: Vaccinia virus WR.
The target in test [11] is HLA-B*08:01. In words: IEDB peptide-MHC binding, purified MHC/direct/fluorescence; filed as Kd, often an IC50 or EC50 that approximates it; ≥ and ≤ were set here for values at or beyond the usual limits of such assays.
Test [12] has as its target HLA-B*08:02. The description is as above.
Test [13] has as its target HLA-B*57:01. The description is as above. The note with it: source organism: Vibrio vulnificus.
The target of test [14] is HLA-B*58:01. The test is described as above.
For test [15], the target named is HLA-B*46:01. In words: IEDB peptide-MHC binding, purified MHC/competitive/fluorescence; filed as Kd, often an IC50 or EC50 that approximates it; ≥ and ≤ were set here for values at or beyond the usual limits of such assays.
In test [16] the target is HLA-A*01:01. Kind of test: IEDB peptide-MHC binding, purified MHC/direct/fluorescence; filed as Kd, often an IC50 or EC50 that approximates it; ≥ and ≤ were set here for values at or beyond the usual limits of such assays.
Test [17] addresses HLA-A*02:01. Described as above.
The target of test [18] is HLA-A*03:01. The test is described as above.
Test [19] concerns the target HLA-A*11:01. Described as above.
Test [20] addresses HLA-A*24:03. The description is as above.
Test [21] concerns the target HLA-A*26:01. The description is as above.
For test [22], the target named is HLA-A*31:01. The description is as above. The note with it: source organism: Yersinia pestis Nepal516.
The target of test [23] is HLA-A*69:01. Described as above.
Test [24] deals with HLA-B*07:02. The test is described as above.
For test [25], the target named is HLA-B*15:01. Described as above. The note with it: source organism: Yersinia pestis Nepal516.
In test [26] the target is HLA-B*27:05. The description is as above.
Test [27] deals with HLA-B*40:01. The description is as above.
In test [28] the target is HLA-B*44:02. Described as above.
Test [29] addresses HLA-A*23:01. Kind of test: IEDB peptide-MHC binding, purified MHC/competitive/radioactivity; filed as Kd, often an IC50 or EC50 that approximates it; ≥ and ≤ were set here for values at or beyond the usual limits of such assays.
The target of test [30] is HLA-A*24:02. Described as above. The note with it: source organism: Mammarenavirus tacaribeense.
In test [31] the target is HLA-A*29:02. The test is described as above. The note with it: source organism: Mammarenavirus tacaribeense.
The target of test [32] is HLA-B*48:01. Kind of test: IEDB peptide-MHC binding, purified MHC/direct/fluorescence; filed as Kd, often an IC50 or EC50 that approximates it; ≥ and ≤ were set here for values at or beyond the usual limits of such assays. Conditions: source organism: Escherichia coli O157:H7.
The target of test [33] is HLA-A*02:12. Described as above. The note with it: source organism: dengue virus type 3.
[34] abbreviates: source organism: Dengue virus 2 Jamaica/1409/1983.
The mark [35] stands for this setting: source organism: Vaccinia virus Copenhagen.
[36] abbreviates: source organism: Vaccinia virus WR.
Setting [37] is: source organism: Dengue virus 4 Philippines/H241/1956.
The mark [38] stands for this setting: source organism: Listeria monocytogenes serotype 4b str. H7858.
[39] abbreviates: source organism: Yersinia pestis Nepal516.
[40] abbreviates: source organism: Dengue virus 3 Martinique/1243/1999.
The mark [41] stands for this setting: source organism: Vibrio parahaemolyticus.
The mark [42] stands for this setting: source organism: Dengue virus 1 Brazil/97-11/1997.

As for AAAWYLWEV, the dissociation constant Kd in test [1] stood at 3.38 nM; in test [2] it was 1420 nM.

AEMEEALRGL: the Kd in [3] (setting [34]) turned out to be 13 nM; in test [4] (setting [34]), 17.6 nM; in test [5] (setting [34]), 31.6 nM.

With CMVICLLSF, the Kd in test [6] (setting [35]) came out at 641 nM.

Consider EKTQYTNDF, for which the dissociation constant (Kd) in test [7] is 1340 nM; in [8] (setting [36]), not below 77800 nM; in test [9] (setting [36]) it was not below 26700 nM; in test [10], 12700 nM; in [6] (setting [36]), 832 nM.

With EQKLRPNSF, the Kd in [7] worked out at 1010 nM; in test [8] (setting [36]) it was 12200 nM; in test [9] (setting [36]) it was 6140 nM; in test [10], 8990 nM; in test [6] (setting [36]), 1100 nM.

As for ESVKFGNSI, in test [6] (setting [36]), the Kd was found to be 102 nM.

For the sequence FHVRRLLKF, in [6] (setting [35]), the Kd was found to be 21.3 nM.

Take FLSNCEKQF: the Kd in test [6] (setting [36]) turned out to be 21 nM.

As for FSILFSNNF, the Kd in [6] (setting [36]) was found to be 29.7 nM.

On to HEMYWVSGV, for which the dissociation constant Kd in [4] (setting [37]) is 51.5 nM.

With HLKRRKEPL, the Kd in test [11] (setting [38]) amounted to 16 nM; in test [12] (setting [38]), 456 nM.

For the sequence IIIPLSVSI, the Kd in test [7] was 1290 nM; in test [8] (setting [36]) it was 69.6 nM; in [9] (setting [36]), not below 31000 nM; in test [10] it was 298 nM; in [6] (setting [36]), 1230 nM.

On to IKVTAASPM, for which, in test [6] (setting [36]), the equilibrium dissociation constant (Kd) is 2.76 nM.

Regarding IMTSGVIPF, the Kd in test [6] (setting [35]) amounted to 0.223 nM.

With ISSRESVSF, in [6] (setting [35]), the Kd was 12.1 nM.

As for ITNTEINSF, the Kd in test [8] (setting [36]) was 413 nM; in [6] (setting [36]), 421 nM.

Turning to KKMQSYNSV, the Kd in [6] (setting [36]) was 2.81 nM.

Turning to KLVIFPSHL, the dissociation constant (Kd) in test [6] (setting [36]) was determined as 1170 nM.

On to LAFSTRFSF, for which the results for the Kd in test [13], in test [14] (source organism: Vibrio vulnificus) and in test [15] (source organism: Vibrio vulnificus YJ016) were 292 nM, 144 nM and 661 nM, respectively.

For LKYYYSNSY, the Kd in test [6] (setting [36]) was found to be 0.242 nM.

Turning to LSEEIGLDL, the equilibrium dissociation constant (Kd) in [16] (source organism: Yersinia pestis) was 6380 nM; in [17] (setting [39]), not below 20000 nM; in test [18] (setting [39]) it was not below 20000 nM; in test [19] (setting [39]), not below 20000 nM; in [20] (setting [39]) it was not below 20000 nM; in test [21] (setting [39]), not below 20000 nM. Further, the dissociation constant Kd in test [22], in test [23] (setting [39]), in test [24] (setting [39]), in test [11] (setting [39]), in test [25] and in test [26] (setting [39]) was not below 20000 nM in each case. The dissociation constant Kd in test [27] (setting [39]), in test [28] (setting [39]) and in test [14] (setting [39]) was not below 20000 nM each time.

Take LYGLITEQF: the Kd in test [20] (source organism: Mammarenavirus machupoense) turned out to be 0.2 nM; in test [29] (source organism: Mammarenavirus tacaribeense), 3.98 nM; in [30] it was 15.5 nM; in test [31], 2070 nM.

Regarding MEEALKGLPI, the Kd amounted to 86.6 nM in [3] (setting [40]), 338 nM in test [4] (setting [40]) and 205 nM in test [5] (setting [40]).

Turning to MVRLPYKDA, the dissociation constant Kd in test [7] is 0.763 nM; in test [8] (setting [36]) it was not below 77800 nM; in test [9] (setting [36]), not below 77700 nM; in test [10], not below 50700 nM; in test [6] (setting [36]) it was not below 29900 nM.

In the case of QYDDLHKKF, the equilibrium dissociation constant (Kd) in test [16] (setting [41]) was not below 20000 nM; in [17] (setting [41]), not below 20000 nM; in test [18] (setting [41]) it was not below 20000 nM; in test [19] (setting [41]), not below 20000 nM; in test [20] (setting [41]), 62.6 nM; in [21] (setting [41]) it was not below 20000 nM. In addition, the Kd in test [23] (setting [41]), in test [24] (setting [41]), in test [11] (setting [41]), in test [26] (setting [41]), in test [27] (setting [41]) and in test [28] (setting [41]) was not below 20000 nM in each case. This sequence came in with a Kd in test [14] (setting [41]) not below 20000 nM.

In the case of RRHPMRLRK, the dissociation constant Kd in [26] (source organism: Escherichia coli O157:H7) is 24.8 nM; in test [32], not below 20000 nM.

Consider SEIQLTDYGA, for which the Kd in [3] (setting [42]) came out at 972 nM; in [4] (setting [42]), 149 nM; in test [5] (setting [42]), 42.6 nM.

On to SNINDFNIF, for which the Kd in [6] (setting [36]) was determined as 501 nM.

As to TEPEDIDCW, in [4] (setting [37]), the Kd is 1140 nM.

As for TLKRRSWPL, the Kd in [33] was 4 nM; in test [12] (source organism: dengue virus type 3) it was 88 nM; in [9] (setting [40]), 1.18 nM.

As for TLYAVATTF, the equilibrium dissociation constant (Kd) is not below 20000 nM in test [15] (source organism: Dengue virus 2 Thailand/NGS-C/1944), 134 nM in test [29] (setting [34]) and 81.3 nM in [8] (setting [34]).

With VQHNIKHSF, the Kd in test [6] (setting [36]) came out at 0.203 nM.
